The values that follow come from PMC12663243 (Scientific Reports, 2025).

Test [1] deals with human somatostatin receptor 2 (SSTR2), PRESTO-Tango construct (human) (UniProt P30874).
Test [2] has as its target human somatostatin receptor 4 (SSTR4), PRESTO-Tango construct (human) (UniProt P31391).
Test [3] concerns the target human somatostatin receptor 1 (SSTR1), PRESTO-Tango construct (human) (UniProt P30872).

Chain of human somatostatin receptor 2 (SSTR2), PRESTO-Tango construct (human) (P30874 whole entry): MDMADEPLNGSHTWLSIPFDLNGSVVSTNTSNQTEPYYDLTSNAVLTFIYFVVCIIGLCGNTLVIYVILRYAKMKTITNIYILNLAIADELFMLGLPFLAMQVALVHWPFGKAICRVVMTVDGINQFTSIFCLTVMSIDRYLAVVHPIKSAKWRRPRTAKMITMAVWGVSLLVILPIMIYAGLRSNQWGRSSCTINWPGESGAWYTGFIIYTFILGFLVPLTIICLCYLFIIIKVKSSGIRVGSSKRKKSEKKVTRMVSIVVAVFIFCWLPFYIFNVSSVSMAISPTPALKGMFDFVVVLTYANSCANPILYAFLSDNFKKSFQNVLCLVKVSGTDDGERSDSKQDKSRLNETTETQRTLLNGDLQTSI
Chain of human somatostatin receptor 4 (SSTR4), PRESTO-Tango construct (human) (P31391 whole entry): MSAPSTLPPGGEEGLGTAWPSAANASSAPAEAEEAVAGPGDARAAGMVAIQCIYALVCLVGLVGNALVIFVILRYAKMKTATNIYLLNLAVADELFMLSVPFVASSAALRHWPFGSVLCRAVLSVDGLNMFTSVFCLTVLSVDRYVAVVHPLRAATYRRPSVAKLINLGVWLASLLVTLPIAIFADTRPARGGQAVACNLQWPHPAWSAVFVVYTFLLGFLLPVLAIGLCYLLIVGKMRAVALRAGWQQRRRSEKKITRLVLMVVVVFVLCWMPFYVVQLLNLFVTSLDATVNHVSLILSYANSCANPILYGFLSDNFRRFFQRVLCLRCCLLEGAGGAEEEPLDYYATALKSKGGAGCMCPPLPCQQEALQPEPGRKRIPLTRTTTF
Chain of human somatostatin receptor 1 (SSTR1), PRESTO-Tango construct (human) (P30872 whole entry): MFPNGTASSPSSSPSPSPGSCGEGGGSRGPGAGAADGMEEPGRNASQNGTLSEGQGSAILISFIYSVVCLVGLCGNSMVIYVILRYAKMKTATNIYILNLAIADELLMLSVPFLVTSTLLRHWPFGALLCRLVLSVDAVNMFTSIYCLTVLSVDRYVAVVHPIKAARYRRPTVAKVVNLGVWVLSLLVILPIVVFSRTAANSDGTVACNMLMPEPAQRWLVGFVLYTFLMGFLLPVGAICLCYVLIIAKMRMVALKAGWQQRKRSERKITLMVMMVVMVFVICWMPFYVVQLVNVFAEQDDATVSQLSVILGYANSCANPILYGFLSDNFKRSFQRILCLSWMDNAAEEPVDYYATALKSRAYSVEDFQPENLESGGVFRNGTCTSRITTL

Consider consomatin Fj2 (peptide), for which the PRESTO-Tango β-arrestin recruitment assay (HTLA cells), EC50 in test [1] turned out to be 0.2 µM; in test [2], 2 µM.
Regarding consomatin Pr1 (peptide), the PRESTO-Tango β-arrestin recruitment assay (HTLA cells), EC50 in test [3] was determined as 130 nM; in test [1], 0.041 µM.
